Positions count from the first letter of the chain named.
T1: human LAG-3 (full length, on the cell surface) (human, UniProt P18627 23-525)
T1 construct: Full-length human LAG-3 expressed on cells; also called HEK293-hLAG-3; HEK293 cells transfected with LAG-3 gene
T1 sequence: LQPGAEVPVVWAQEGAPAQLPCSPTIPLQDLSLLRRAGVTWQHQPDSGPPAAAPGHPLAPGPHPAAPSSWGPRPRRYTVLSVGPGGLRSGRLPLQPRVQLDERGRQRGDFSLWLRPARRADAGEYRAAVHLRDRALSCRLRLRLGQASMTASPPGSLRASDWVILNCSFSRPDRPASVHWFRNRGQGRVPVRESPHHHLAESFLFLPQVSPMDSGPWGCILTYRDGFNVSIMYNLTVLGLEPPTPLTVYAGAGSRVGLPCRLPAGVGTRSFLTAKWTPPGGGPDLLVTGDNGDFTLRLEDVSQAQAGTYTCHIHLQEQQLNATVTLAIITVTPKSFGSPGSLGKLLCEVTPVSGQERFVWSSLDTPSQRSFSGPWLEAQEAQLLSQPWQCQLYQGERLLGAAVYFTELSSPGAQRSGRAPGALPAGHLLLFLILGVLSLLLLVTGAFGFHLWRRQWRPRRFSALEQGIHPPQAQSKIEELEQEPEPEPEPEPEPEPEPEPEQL

T2: mouse LAG-3 protein with hFc tag (mLAG-3-hFc protein) (mouse; human, UniProt Q61790 24-442)
T2 construct: Made in HEK293 cells; also called mouse LAG-3 extracellular domain protein; not shown: human IgG Fc fragment (hFc) of the pCpC vector
T2 sequence: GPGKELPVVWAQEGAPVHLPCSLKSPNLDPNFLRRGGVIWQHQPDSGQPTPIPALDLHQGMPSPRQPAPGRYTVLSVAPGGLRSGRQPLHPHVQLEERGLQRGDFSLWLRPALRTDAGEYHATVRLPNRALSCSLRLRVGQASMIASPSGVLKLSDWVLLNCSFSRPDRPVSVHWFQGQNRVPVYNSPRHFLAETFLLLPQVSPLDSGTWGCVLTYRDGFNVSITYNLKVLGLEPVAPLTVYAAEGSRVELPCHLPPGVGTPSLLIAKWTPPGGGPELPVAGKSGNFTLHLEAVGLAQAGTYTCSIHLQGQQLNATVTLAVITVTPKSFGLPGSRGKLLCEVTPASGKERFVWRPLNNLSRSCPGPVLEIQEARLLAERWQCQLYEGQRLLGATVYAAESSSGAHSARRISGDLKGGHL

T3: monkey LAG-3 on cells (HEK293-cLAG-3 stable cell line) (monkey, UniProt P18627 24-525 (human entry))
T3 construct: Full-length monkey (Chinese monkey) LAG-3 gene expressed on HEK293 cells
T3 chain: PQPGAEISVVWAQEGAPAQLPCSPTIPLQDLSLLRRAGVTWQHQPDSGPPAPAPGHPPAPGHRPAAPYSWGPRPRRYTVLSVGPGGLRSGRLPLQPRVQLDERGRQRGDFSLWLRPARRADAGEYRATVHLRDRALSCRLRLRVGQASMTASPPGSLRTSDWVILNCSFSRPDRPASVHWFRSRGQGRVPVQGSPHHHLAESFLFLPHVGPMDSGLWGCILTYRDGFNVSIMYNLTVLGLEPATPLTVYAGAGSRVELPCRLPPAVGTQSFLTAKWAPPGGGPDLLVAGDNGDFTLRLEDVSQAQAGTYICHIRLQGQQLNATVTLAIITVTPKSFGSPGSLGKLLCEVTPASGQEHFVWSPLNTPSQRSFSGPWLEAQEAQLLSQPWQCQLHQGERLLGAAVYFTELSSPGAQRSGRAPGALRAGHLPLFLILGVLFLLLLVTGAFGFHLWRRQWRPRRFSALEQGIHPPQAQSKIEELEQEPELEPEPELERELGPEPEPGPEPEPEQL

B1: 405B8H3 (mouse antibody purified from hybridoma) (antibody, V domains shown)
VH: QVQLQQSGAELVRPGASVTLSCKASGYTFTDYEMHWVKQTPVHGLEWIGATDPETGNSAYNQKFKGKAIMTADKSSSTAYMELRSLTSEDSAVYYCISTGWNDWGQGTSLTVSS
VL: DIKMTQSPSSMYASLGERVTITCKASQDINSYLSWFQQKPGKSPKTLIYRADRLLDGVPSRFSGSGSGQDYSLTISSLEYGDMGIYYCLQYDEFPYTFGGGTKLEIK
notes: also called mAb103-405B8H3; 405B81-13
B2: 405B8H3 (LAG-3 mouse-human chimeric antibody) (antibody, V domains shown)
VH: B1 VH
VL: B1 VL
notes: also called mouse-human chimeric antibody 405B8H3
B3: 105F1E10 (mouse antibody purified from hybridoma) (antibody, V domains shown)
VH: EVQLQQSGPELVKPGASVKMSCRASGYTFTDFKMHWMKQSHGKSLEWIGYIAPNNGGTAYNQKFRGKATLTVNESSNTAYMELRSLTSEDSAVYYCVDWDDVDYWGQGTTLTVSS
VL: B1 VL with P40S, D52N, L55V, G81E, D92V, Y96L, G100A, I106L
notes: also called mAb009-105F1E10
B4: 105F1E10 (LAG-3 mouse-human chimeric antibody) (antibody, V domains shown)
VH: B3 VH
VL: B1 VL with P40S, D52N, L55V, G81E, D92V, Y96L, G100A, I106L
B5: 105F1E10 mouse-human chimeric antibody (antibody, V domains shown)
VH: B3 VH
VL: B1 VL with P40S, D52N, L55V, G81E, D92V, Y96L, G100A, I106L
notes: also called mAb009-105F1E10
B6: 405B8H3 mouse-human chimeric antibody (antibody, V domains shown)
VH: B1 VH
VL: B1 VL
notes: also called mAb103-405B8H3
B7: 409D4E10 mouse-human chimeric antibody (antibody, V domains shown)
VH: B1 VH with Y27N, G56D, S58T, M70L, A72T, S98T, T99S
VL: B1 VL with D52N, G81E, D92N
notes: also called mAb112-409D4E10
B8: 409D4E10 (LAG-3 mouse-human chimeric antibody) (antibody, V domains shown)
VH: B1 VH with Y27N, G56D, S58T, M70L, A72T, S98T, T99S
VL: B1 VL with D52N, G81E, D92N
B9: 409B11E12 (LAG-3 mouse-human chimeric antibody) (antibody, V domains shown)
VH: B1 VH with P41T, G56S, N57Y, M70L, S98A
VL: B1 VL with I2L, D52N, G81E
B10: 409D4E10 (mouse antibody purified from hybridoma) (antibody, V domains shown)
VH: B1 VH with Y27N, G56D, S58T, M70L, A72T, S98T, T99S
VL: B1 VL with D52N, G81E, D92N
notes: also called mAb112-409D4E10
B11: 409B11E12 mouse-human chimeric antibody (antibody, V domains shown)
VH: B1 VH with P41T, G56S, N57Y, M70L, S98A
VL: B1 VL with I2L, D52N, G81E
notes: also called mAb104-409B11E12
B12: 409B11E12 (mouse antibody purified from hybridoma) (antibody, V domains shown)
VH: B1 VH with P41T, G56S, N57Y, M70L, S98A
VL: B1 VL with I2L, D52N, G81E
notes: also called mAb104-409B11E12
B13: 556F6B8 mouse-human chimeric antibody (antibody, V domains shown)
VH: RVQLKQSGPGLVQPSQSLSITCTVSGFSLIKYGVHWVRQSPGEGLEWLGVIWRGGITDYNAAFMSRLSITKDNSKSQVFFKMNSLQADDTAIYYCAKWDGPLAMDYWGQGTSVTVSS
VL: DIVMTQSHKFLSTSVGDRVSITCKASQDVGTTVAWYQQKPGQSPKLLIYWASTRHTGVPDRFTGSGSGTDFTLTISNVQSEDLADYFCQQYSSYPYTFGGGTKLEIK
notes: also called mAb123-556F6B8; 556F8B8
B14: 556F6B8 (LAG-3 mouse-human chimeric antibody) (antibody, V domains shown)
VH: B13 VH
VL: B13 VL
notes: also called 556F8B8
B15: 556F6B8 (mouse antibody purified from hybridoma) (antibody, V domains shown)
VH: B13 VH
VL: B13 VL
notes: also called mAb123-556F6B8

Assays:
[1] = target: T1, human LAG-3 (full length, on the cell …); assay: FACS, HEK293-hLAG-3; 1.600 nM
Text: (§1) The pIRES plasmid with the monkey-derived full-length gene was transfected into the HEK293 cell line to construct a HEK293 stable cell line containing monkey LAG-3 (herein referred to as HEK293-cLAG-3 stable cell line). The HEK293-hLAG-3 stable cell line and HEK293-cLAG-3 stable cell line were expanded in a T-75 cell culture flask to a 90% confluence. The medium was aspirated, and the cells were washed with HBSS (Hanks' Balanced Salt Solution) 1-2 times, then treated with a enzyme-free cell dissociation fluid (Versene solution: Life technology) and the cells were collected. The cells were washed with HBSS buffer for 1-2 times. After counted, the cells were diluted with HBSS to 1-2×10⁶ cells per ml, added with 1% goat serum blocking solution, incubated on ice for 20-30 minutes, and then washed with HBSS for 2 times by centrifugation. The collected cells were suspended in the FACS buffer (HBSS+1% BSA) to 2×10⁶ cells/ml, added as 100 microliters per well to a 96-well FACS reaction plate, added with 100 microliters per well of the antibody sample to be tested, incubated on ice for 1-2 hours. The plate was washed twice with the FACS buffer by centrifugation, added with 100 microliters of fluorescent (Alexa 488)-labeled secondary antibodies per well, and incubated on ice for 0.5-1.0 hours. The plate was washed 2-3 times with FACS buffer by centrifugation, added with 100 μl fixative solution (4% Paraformaldehyde) per well to suspend the cells. 5-10 minutes later, it was washed 1-2 times with FACS buffer by centrifugation. The cells were suspended with 100 microliters of FACS buffer, FACS (FACSCalibur, BD) was used for detection and the results were analyzed.

[2] = target: T2, mouse LAG-3 protein with hFc tag …; assay: ELISA, mLAG-3-hFc coated; 0.0001 nM
Procedure: (§2) The plate was sealed with plastic film and incubated overnight at 4° C. The plate was washed 2 times with the plate washing solution (PBS+0.01% Tween20) on the next day, and added with the blocking solution (PBS+0.01% Tween20+1% BSA) and blocked at room temperature for 1-2 hours. The blocking solution was poured out, and the plate was added with 50-100 μl of the antibody sample to be tested to each well, incubated at 37° C. for 1-2 hours, and washed 2-3 times with a plate washing solution (PBS+0.01% Tween20). HRP (horseradish peroxidase) labeled secondary antibody was added, and the plate was incubated at 37° C. for 1-2 hours, and washed 2-3 times with a plate washing solution (PBS+0.01% Tween20). 100 μl of TMB substrate was added to each well. After incubated at room temperature for 15-30 minutes, the plate was added with 100 μl of stop solution (1.0N HCl) to each well.

[3] = target: T2, mouse LAG-3 protein with hFc tag …; assay: ELISA, mLAG-3-hFc coated; 0.0667 nM
Procedure: as §2

[4] = target: T3, monkey LAG-3 on cells (HEK293-cLAG-3 …); assay: FACS, HEK293-cLAG-3, antibody 0.320 nM
Text: as §1

| Binder | Mean fluorescence intensity [1] | OD450 [2] | OD450 [3] | Mean fluorescence intensity [4] |
| --- | --- | --- | --- | --- |
| B1 | 99.4 MFI |  |  |  |
| B2 |  | 0.08 OD450 | 0.08 OD450 |  |
| B3 | 86.2 MFI |  |  |  |
| B4 |  | 0.09 OD450 | 0.08 OD450 |  |
| B5 |  |  |  | 5.72 |
| B6 |  |  |  | 10.3 |
| B7 |  |  |  | 8.96 |
| B8 |  | 0.1 OD450 | 0.13 OD450 |  |
| B9 |  | 0.09 OD450 | 0.09 OD450 |  |
| B10 | 48 MFI |  |  |  |
| B11 |  |  |  | 11.6 |
| B12 | 55.6 MFI |  |  |  |
| B13 |  |  |  | 8.37 |
| B14 |  | 0.14 OD450 | 0.11 OD450 |  |
| B15 | 43.5 MFI |  |  |  |

Reference: patent publication US20210155689A1 (SHANGHAI PHARMAEXPLORER, published 2021)
